Assay results from patent US20250136720A1 (Boehringer Ingelheim, published 2025).

What was measured:
[1] = molecular target: T1, Human CD137 on Jurkat cells (human, UniProt Q07011 24-255); assay: cell-based or functional assay; parameters: IC90; Jurkat-CD137 NFkB-luciferase, HT1080-FAP co-culture / EC90; Jurkat-CD137 NFkB-luciferase, HT1080-FAP co-culture: unit not given beside the values
[2] = molecular target: T1, Human CD137 on Jurkat cells; assay: cell-based or functional assay

Binder	EC90; Jurkat-CD137 NFkB-luciferase, HT1080-FAP co-culture [1]	IC90; Jurkat-CD137 NFkB-luciferase, HT1080-FAP co-culture [1]	Total AUC; Jurkat-CD137 NFkB-luciferase, HT1080-FAP co-culture [1]	Average EC50; Jurkat-CD137 NFkB-luciferase, HT1080-FAP co-culture [2] [nM]	Average EC90; Jurkat-CD137 NFkB-luciferase, HT1080-FAP co-culture [2] [nM]	Average IC50; Jurkat-CD137 NFkB-luciferase, HT1080-FAP co-culture [2] [nM]	Average IC90; Jurkat-CD137 NFkB-luciferase, HT1080-FAP co-culture [2] [nM]	Ratio IC50/EC50; Jurkat-CD137 NFkB-luciferase, HT1080-FAP co-culture [2]	Ratio IC90/EC90; Jurkat-CD137 NFkB-luciferase, HT1080-FAP co-culture [2]
CD137 #3 (B21.V22) + FAP #3 (A11 VK7/VH1) (bispecific antibody, human IgG1, kappa, L234A L235A) heavy: not shown light: DIQMTQSPSSLSASVGDRVTITCRASQSVSSALAWYQQKPGKAPKLLIYAASYRQSGVPSRFSGSGSGTDFTLTISSLQPEDFAVYYCQQHYSNPWTFGQGTKLEIKRTVAAPSVFIFPPSDEQLKSGTASVVCLLNNFYPREAKVQWKVDNALQSGNSQESVTEQDSKDSTYSLSSTLTLSKADYEKHKVYACEVTHQGLSSPVTKSFNRGEC	2.41	144	1.9e+06						
CD137 #4 (B21.V25) + FAP #3 (A11 VK7/VH1) (bispecific antibody, human IgG1, kappa, L234A L235A) heavy: not shown light: DIQMTQSPSSLSASVGDRVTITCRASQSISTAVAWYQQKPGKAPKLLIYAASYLYSGVPSRFSGSGSGTDFTLTISSLQPEDFAVYYCQQHYSNPWTFGQGTKLEIKRTVAAPSVFIFPPSDEQLKSGTASVVCLLNNFYPREAKVQWKVDNALQSGNSQESVTEQDSKDSTYSLSSTLTLSKADYEKHKVYACEVTHQGLSSPVTKSFNRGEC	2.55	492	2.5e+06	0.248	1.51	747	79.2	3010	52.3
CD137 #3 (B21.V22) + FAP #2 (A11 VK3/VH3) (bispecific antibody, human IgG1, kappa, L234A L235A) heavy: not shown light: DIQMTQSPSSLSASVGDRVTITCRASQSVSSALAWYQQKPGKAPKLLIYAASYRQSGVPSRFSGSGSGTDFTLTISSLQPEDFAVYYCQQHYSNPWTFGQGTKLEIKRTVAAPSVFIFPPSDEQLKSGTASVVCLLNNFYPREAKVQWKVDNALQSGNSQESVTEQDSKDSTYSLSSTLTLSKADYEKHKVYACEVTHQGLSSPVTKSFNRGEC	1.42	69.6	2.4e+06						
CD137 #3 (B21.V22) + FAP #5 (C3 VK1/VH4) (bispecific antibody, human IgG1, kappa, L234A L235A) heavy: not shown light: DIQMTQSPSSLSASVGDRVTITCRASQSVSSALAWYQQKPGKAPKLLIYAASYRQSGVPSRFSGSGSGTDFTLTISSLQPEDFAVYYCQQHYSNPWTFGQGTKLEIKRTVAAPSVFIFPPSDEQLKSGTASVVCLLNNFYPREAKVQWKVDNALQSGNSQESVTEQDSKDSTYSLSSTLTLSKADYEKHKVYACEVTHQGLSSPVTKSFNRGEC	2.18	87.8	2.3e+06						
CD137 #4 (B21.V25) + FAP #2 (A11 VK3/VH3) (bispecific antibody, human IgG1, kappa, L234A L235A) heavy: not shown light: DIQMTQSPSSLSASVGDRVTITCRASQSISTAVAWYQQKPGKAPKLLIYAASYLYSGVPSRFSGSGSGTDFTLTISSLQPEDFAVYYCQQHYSNPWTFGQGTKLEIKRTVAAPSVFIFPPSDEQLKSGTASVVCLLNNFYPREAKVQWKVDNALQSGNSQESVTEQDSKDSTYSLSSTLTLSKADYEKHKVYACEVTHQGLSSPVTKSFNRGEC	0.65	46.9	3.3e+06	0.273	0.738	888	84	3260	114
CD137 #2 (B21.V16) + FAP #3 (A11 VK7/VH1) (bispecific antibody, human IgG1, kappa, L234A L235A) heavy: not shown light: DIQMTQSPSSLSASVGDRVTITCKASQDISSAVAWYQQKPGKAPKLLIYSASSRYTGVPSRFSGSGSGTDFTLTISSLQPEDFAVYYCQQHYSNPWTFGQGTKLEIKRTVAAPSVFIFPPSDEQLKSGTASVVCLLNNFYPREAKVQWKVDNALQSGNSQESVTEQDSKDSTYSLSSTLTLSKADYEKHKVYACEVTHQGLSSPVTKSFNRGEC				0.082	0.613	361	48.4	4380	79.1
CD137 #5 (B21.V29) + FAP #5 (C3 VK1/VH4) (bispecific antibody, human IgG1, kappa, L234A L235A) heavy: not shown light: DIQMTQSPSSLSASVGDRVTITCRASQSISTALAWYQQKPGKAPKLLIYAASYRYSGVPSRFSGSGSGTDFTLTISSLQPEDFAVYYCQQHYSNPWTFGQGTKLEIKRTVAAPSVFIFPPSDEQLKSGTASVVCLLNNFYPREAKVQWKVDNALQSGNSQESVTEQDSKDSTYSLSSTLTLSKADYEKHKVYACEVTHQGLSSPVTKSFNRGEC	0.8	35.7	3.2e+06	0.115	0.644	319	69.2	2790	107
CD137 #10 (A49.V48) + FAP #3 (A11 VK7/VH1) (bispecific antibody, human IgG1, kappa, L234A L235A) heavy: not shown light: EIVMTQSPLSLPVTPGEPASISCRSSQSLLYSQGYNHLDWYLQKPGQSPQLLIYGGSNRASGVPDRFSGSGSGTDFTLKISRVEAEDVGVYYCMQALQTPPTFGQGTKLEIKRTVAAPSVFIFPPSDEQLKSGTASVVCLLNNFYPREAKVQWKVDNALQSGNSQESVTEQDSKDSTYSLSSTLTLSKADYEKHKVYACEVTHQGLSSPVTKSFNRGEC	1.91	86.7	1.26e+07						
CD137 #10 (A49.V48) + FAP #5 (C3 VK1/VH4) (bispecific antibody, human IgG1, kappa, L234A L235A) heavy: not shown light: EIVMTQSPLSLPVTPGEPASISCRSSQSLLYSQGYNHLDWYLQKPGQSPQLLIYGGSNRASGVPDRFSGSGSGTDFTLKISRVEAEDVGVYYCMQALQTPPTFGQGTKLEIKRTVAAPSVFIFPPSDEQLKSGTASVVCLLNNFYPREAKVQWKVDNALQSGNSQESVTEQDSKDSTYSLSSTLTLSKADYEKHKVYACEVTHQGLSSPVTKSFNRGEC	6.24	700	1.13e+07						
CD137 #9 (A49.V47) + FAP #3 (A11 VK7/VH1) (bispecific antibody, human IgG1, kappa, L234A L235A) heavy: not shown light: EIVMTQSPLSLPVTPGEPASISCRSSQSLLYSQGYNHLDWYLQKPGQSPQLLIYGGSNRASGVPDRFSGSGSGTDFTLKISRVEAEDVGVYYCMQALQTPPTFGQGTKLEIKRTVAAPSVFIFPPSDEQLKSGTASVVCLLNNFYPREAKVQWKVDNALQSGNSQESVTEQDSKDSTYSLSSTLTLSKADYEKHKVYACEVTHQGLSSPVTKSFNRGEC	1.65	1.07	9.5e+06						
CD137 #9 (A49.V47) + FAP #2 (A11 VK3/VH3) (bispecific antibody, human IgG1, kappa, L234A L235A) heavy: not shown light: EIVMTQSPLSLPVTPGEPASISCRSSQSLLYSQGYNHLDWYLQKPGQSPQLLIYGGSNRASGVPDRFSGSGSGTDFTLKISRVEAEDVGVYYCMQALQTPPTFGQGTKLEIKRTVAAPSVFIFPPSDEQLKSGTASVVCLLNNFYPREAKVQWKVDNALQSGNSQESVTEQDSKDSTYSLSSTLTLSKADYEKHKVYACEVTHQGLSSPVTKSFNRGEC	3.01	93.8	7.6e+06						
CD137 #9 (A49.V47) + FAP #5 (C3 VK1/VH4) (bispecific antibody, human IgG1, kappa, L234A L235A) heavy: not shown light: EIVMTQSPLSLPVTPGEPASISCRSSQSLLYSQGYNHLDWYLQKPGQSPQLLIYGGSNRASGVPDRFSGSGSGTDFTLKISRVEAEDVGVYYCMQALQTPPTFGQGTKLEIKRTVAAPSVFIFPPSDEQLKSGTASVVCLLNNFYPREAKVQWKVDNALQSGNSQESVTEQDSKDSTYSLSSTLTLSKADYEKHKVYACEVTHQGLSSPVTKSFNRGEC	4.23	742	7.8e+06						
CD137 #10 (A49.V48) + FAP #2 (A11 VK3/VH3) (bispecific antibody, human IgG1, kappa, L234A L235A) heavy: not shown light: EIVMTQSPLSLPVTPGEPASISCRSSQSLLYSQGYNHLDWYLQKPGQSPQLLIYGGSNRASGVPDRFSGSGSGTDFTLKISRVEAEDVGVYYCMQALQTPPTFGQGTKLEIKRTVAAPSVFIFPPSDEQLKSGTASVVCLLNNFYPREAKVQWKVDNALQSGNSQESVTEQDSKDSTYSLSSTLTLSKADYEKHKVYACEVTHQGLSSPVTKSFNRGEC	2.57	137	1.13e+07						
